{
  "source": "paper PMC4769881",
  "about": "(Molecular cell, 2016)",
  "proteins": {"B1": {"name": "NBB182 (human MLKL N-terminal helix bundle and whole brace, to residue 182), tagless purified protein (domain or fragment, UniProt Q8NB16 1-182, looked up)", "chain": "MENLKHIITLGQVIHKRCEEMKYCKKQCRRLGHRVLGLIKPLEMLQDQGKRSVPSEKLTTAMNRFKAALEEANGEIEKFSNRSNICRFLTASQDKILFKDVNRKLSDVWKELSLLLQVEQRMPVSPISQGASWAQEDQQDADEDRRAFQMLRRDNEKIEASLRRLEINMKEIKETLRQYLPP"}},
  "molecular_target": "the molecule itself",
  "experiment": "AUC",
  "data": [
    {"protein": "B1", "values": [
      {"measurement": "stoichiometry N", "result": 2}
    ]}
  ]
}
